Assay [1] deals with LY6A (Ly6a, C57BL/6J mouse) (mouse (C57BL/6J)) (UniProt P05533). The assay can be described thus: cell-based or functional assay.
Assay [2] shares this target. Kind of assay: qPCR of viral genomes bound to Ly6a-transfected HEK293T cells. On the technique in general: In qPCR the cycle at which signal appears reflects the starting amount.
The target is the same in assay [3]. The assay can be described thus: binding (qPCR) and transduction of cells with ectopic LY6A.
Assay [4] has the same target. Kind of assay: qPCR of viral genomes bound to BMVECs treated with Ly6a sgRNAs (CRISPR/SaCAS9).
Assay [5] shares this target. The assay can be described thus: AAV library bound to Ly6a-transfected HEK293T cells, NGS.
In assay [6] the target is LY6C1 (Ly6c1, C57BL/6J mouse, splice variant 1) (mouse (C57BL/6J)) (UniProt P0CW02). Kind of assay: AAV library bound to Ly6c1-transfected HEK293T cells, NGS.
Assay [7] concerns the target LY6A (Ly6a, C57BL/6J mouse) (mouse (C57BL/6J)) (UniProt P05533). The assay can be described thus: AAV library bound to Ly6a-transfected HEK293T cells, NGS. The source holds these as a separate data set.
The target of assay [8] is LY6C1 (Ly6c1, C57BL/6J mouse, splice variant 1) (mouse (C57BL/6J)) (UniProt P0CW02). Kind of assay: AAV library bound to Ly6c1-transfected HEK293T cells, NGS. This is another data set of the same source.
Assay [9] has the same target. Kind of assay: cell-based or functional assay.

Where two headings read alike, the source gives them in different places.

Sequence of UniProt P0CW02 (P0CW02 27-109 limits assumed, change not shown): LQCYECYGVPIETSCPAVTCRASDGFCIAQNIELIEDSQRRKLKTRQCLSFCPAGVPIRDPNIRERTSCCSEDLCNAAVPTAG
Sequence of UniProt P05533 (P05533 27-112 limits assumed): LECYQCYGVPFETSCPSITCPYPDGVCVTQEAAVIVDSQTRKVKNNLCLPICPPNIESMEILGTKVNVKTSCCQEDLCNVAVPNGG

As to AAV-PHP.eB, in assay [1], the transduction of HEK293T cells (Luciferase assay) came out at 30 fold and the transduction of hCMEC cells (firefly luciferase assay) (logs (base 10)) came out at 2. This substance had a fold increase in binding on Ly6a expression in assay [2] of over 50 fold. The substance further showed a fold increase in binding and transduction on LY6A expression in [3] of over 30 fold. The same substance displayed a reduction in binding after Ly6a disruption in assay [4] of 50%.
Substance AAV-PHP.B2 displayed a fold increase in binding on Ly6a expression in assay [2] of over 50 fold.
Take AAV9 K449R 7-mer variant C5 (ELYKLPT): the fold enrichment (log2) in assay [5] was -2.26 log2; in assay [6], 5.38 log2.
AAV9 K449R 7-mer variant IVRGLSS: the fold enrichment (log2) in assay [7] was -1.14 log2; in assay [8], 3.24 log2.
On the same counts, the results for AAV9 K449R 7-mer variant EKKQYSS are 0.89 log2 and 4.45 log2.
For AAV9 K449R 7-mer variant YVGNPFK, the fold enrichment (log2) in assay [7] stood at 4.53 log2; in [8], 0.58 log2.
On to AAV9 K449R 7-mer variant C1 (KSAGSIY), for which the values for the fold enrichment (log2) in assay [5] and in assay [6] were 1.41 log2 and 6.12 log2, respectively.
As to AAV9 K449R 7-mer variant SNDRPFI, the fold enrichment (log2) in assay [7] is 5.43 log2; in assay [8], -1.02 log2.
With AAV9 K449R 7-mer variant LSKGLSS, the fold enrichment (log2) in assay [7] was -3.55 log2; in assay [8] it was 3.55 log2.
In the case of AAV9 K449R 7-mer variant TQQGYSS, the values for the fold enrichment (log2) in assay [7] and in assay [8] were -0.92 log2 and 5.8 log2, respectively.
On the same counts, the results for AAV9 K449R 7-mer variant SQKTPFL are 3.81 log2 and -3.55 log2.
For the substance AAV9 K449R 7-mer variant TRNGYST, the fold enrichment (log2) in [7] stood at 0.82 log2; in assay [8] it was 5.58 log2; in assay [5] it was 0.186 log2; in assay [6], 4.05 log2.
For AAV-PHP.B, the fold increase in binding on Ly6a expression in [2] was over 50 fold.
AAV9 K449R 7-mer variant GDNRPFK: the fold enrichment (log2) came out at 2.65 log2 in [7] and 0.57 log2 in assay [8].
Take AAV9 K449R 7-mer variant VKVGFSS: the fold enrichment (log2) is -2.25 log2 in assay [7] and 4.22 log2 in assay [8].
Take AAV9 K449R 7-mer variant C3 (WGTPPRG): the fold enrichment (log2) in assay [5] came to 1.01 log2; in assay [6] it was 6.35 log2.
On to AAV-PHP.B3, for which, in [2], the fold increase in binding on Ly6a expression was over 50 fold.
On to AAV9 K449R 7-mer variant ALHVPFK, for which the fold enrichment (log2) in [7] is 4.11 log2; in assay [8], 0.26 log2.
Take AAV9 K449R 7-mer variant VYPGYST: the fold enrichment (log2) in [7] is -3.32 log2; in assay [8], 2.21 log2.
AAV9 K449R 7-mer variant MRTLMSS: the fold enrichment (log2) in assay [7] is -0.52 log2; in assay [8], 3.85 log2.
For AAV9 K449R 7-mer variant GESRPFI, in that order: 3.32 log2 and -2.08 log2.
AAV9 K449R 7-mer variant C28 (KSVGSVY) had a transduction of hCMEC cells (firefly luciferase assay) (logs (base 10)) in assay [9] of 2. The values for the fold enrichment (log2) in assay [5] and in [6] were -1.24 log2 and 3.59 log2, respectively.

For the origin of these results see patent US20220143214A1.
